Measurements taken from patent US9394371.

B1: AP4-29E10 (antibody, V domains shown)
VH: EVQLQQSGPELEKPGASVKISCKASGHSFTGYNMNWVKQSNDKSLEWIGNIAPYYGVTAYNQKFKGKATLTGDKSSSTAYMQLKSLASEDSAVYYCVLDTSGYASWGQGTLVTVSA
VL: DIVMTQATASLTVSLGQRATISCRASKSVSTSGYSYMHWYQQKPGQPPKLLIYLASNLESGVPARFSGSGSGTDFTLNIHPVEEEDAATYYCQHSREVPYTFGGGTKLELK
B2: AP4-24H11 (antibody, V domains shown)
VH: EVKPQESGPGLVKPSQSLSLTCTVTGYSITSNYAWNWIRQFPGNKLEWMGFISSYGTTTYNPSLKSRFSITRDTSKNQFFLQLHSVTIEDTGTYFCTREGDYWGQGTTLTVSS
VL: DIVMTQATLSLPVSLGDQASISCRSSQRLVPSNGNIYLHWFLQKPGQSPKLLIYKLSSRFSGVPDRFSGSGSGTDFTLKISRVESEDLGIYFCSQTTHVPYTFGGGTKLEIK
B3: AP1-15B4 (antibody, V domains shown)
VH: EVHLVESGGDLVKPGGSLKLSCAASGFAFSDFAMSWVRQTPEKRLEWVAIIKSDDSYTYYPDSVRDRFTISRDNARNTLYLQMTSLRSEDTALYYCTKIYDAYFYAMDYWGQGTSVTVSS
VL: DIVRTQSPLSLSVSLGDQASISCRSSQSLLHSNGNTYLHWYLQKPGQSPKLLIYKVSNRFSGVPDRFSGSGSGTDFTLKISILEAEDLGIYFCSQSTHFPTFGGGTKLEIK

Experiments:
[1] = molecular target: T1, AIP-4 (S. aureus IV native cyclic signaling peptide) (Staphylococcus aureus); test: competition ELISA on AP4-BSA, tested 5 different times
[2] = molecular target: T1, AIP-4 (S. aureus IV native cyclic …); test: competition ELISA on AP4-BSA
[3] = molecular target: T2, AIP-1 (S. aureus I native cyclic signaling peptide) (Staphylococcus aureus); test: competition ELISA on AP4-BSA
[4] = molecular target: T1, AIP-4 (S. aureus IV native cyclic …); test: cell-based or functional assay
[5] = molecular target: T1, AIP-4 (S. aureus IV native cyclic …); test: competition ELISA on AP4-BSA; remark: listed apart in the source
[6] = molecular target: T2, AIP-1 (S. aureus I native cyclic …); test: competition ELISA on AP1-BSA

Binder	Kd [1] [nM]	Kd [2] [nM]	Kd [3] [nM]	Real-Time PCR fold-change of eta mRNA in RN4850 [4] [fold]	Real-Time PCR fold-change of hla mRNA in RN4850 [4] [fold]	Real-Time PCR fold-change of rnaIII mRNA in RN4850 [4] [fold]	Real-Time PCR fold-change of spa mRNA in RN4850 [4] [fold]	rnaIII transcriptional level in S. aureus RN4850 during stationary growth phase (RT-PCR) [4] [fold]	Kd [5] [nM]	Kd [6] [nM]
B1	2 to 110	24	3000	–	–	–	–	–	–	–
B2	–	90	5000	-8.1	-5.2	-77	5.7	> 50	98	–
B3	–	–	–	–	–	–	–	–	–	800
